Measurements published in patent publication US20030049649, “Targeted modification of chromatin structure” (published 2003).

Target: T1, Veg1 (unfused three-finger ZFP) (Artificial (human SP1 backbone), UniProt P08047 SEQ:1-99)
T1 chain: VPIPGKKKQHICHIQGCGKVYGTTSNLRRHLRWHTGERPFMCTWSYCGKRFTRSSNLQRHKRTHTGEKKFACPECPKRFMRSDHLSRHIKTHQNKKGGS
Assay: EMSA; apparent Kd (half-maximal binding), 100 mM KCl, 1 mM MgCl2, 100 uM ZnCl2, room temperature; not corrected for purity
Settings: tags: none, expressed in E. coli BL21/DE3 from pET15b, >50% pure; label: 5' 32P top strand
Description: Assays for binding of Veg1 to the target oligonucleotide (above) were performed by titrating protein against a fixed amount of duplex target. Binding reactions contained 50 pM 5′ ³²P labeled double stranded target DNA, 10 mM Tris-HCl (pH 7.5), 100 mM KCl, 1 mM MgCl₂, 1 mM dithiothreitol, 10% glycerol, 200 μg/ml bovine serum albumin, 0.02% NP-40, 20 μg/ml poly dI-dC (optionally), and 100 μM ZnCl₂, in a final volume of 20 μl. Protein was added to the binding reaction as one-fifth volume from a dilution series made in 200 mM NaCl, 20 mM Tris (pH 7.5), 1 mM DTT. Binding was allowed to proceed for 45 min at room temperature. Polyacrylamide gel electrophoresis was carried out at room temperature using precast 10% or 10-20% Tris-HCl gels (BioRad, Hercules, Calif.) and Tris-Glycine running buffer (25 mM Tris-HCl, 192 mM glycine, pH 8.3) containing 0.1 mM ZnCl₂. Radioactive signals were quantitated with a Phosphorimager.
Shifted product, indicative of labeled target with bound protein, is indicated by an arrow in FIG. 2A. The amount of shifted product was determined at each protein concentration and quantitated on a Phosphorimager (Molecular Dynamics). The relative signal (percent of maximal amount of shifted product) was plotted as a function of log₁₀ protein concentration. […]

B1: Veg1 29-mer target duplex (dsDNA)
DNA 1: CATGCATAGCGGGGAGGATCGCCATCGAT
DNA 2: ATCGATGGCGATCCTCCCCGCTATGCATG
- Kd: ~50 nM
